Test results reported in patent US20140227295A1 (Bristol-Myers Squibb, published 2014).

Target: mesothelin (UniProt Q13421 37-598, limits assumed)
Assay: cell-based or functional assay

Chain of mesothelin (Q13421 other isoform, or with tags, fused parts or gaps limits assumed): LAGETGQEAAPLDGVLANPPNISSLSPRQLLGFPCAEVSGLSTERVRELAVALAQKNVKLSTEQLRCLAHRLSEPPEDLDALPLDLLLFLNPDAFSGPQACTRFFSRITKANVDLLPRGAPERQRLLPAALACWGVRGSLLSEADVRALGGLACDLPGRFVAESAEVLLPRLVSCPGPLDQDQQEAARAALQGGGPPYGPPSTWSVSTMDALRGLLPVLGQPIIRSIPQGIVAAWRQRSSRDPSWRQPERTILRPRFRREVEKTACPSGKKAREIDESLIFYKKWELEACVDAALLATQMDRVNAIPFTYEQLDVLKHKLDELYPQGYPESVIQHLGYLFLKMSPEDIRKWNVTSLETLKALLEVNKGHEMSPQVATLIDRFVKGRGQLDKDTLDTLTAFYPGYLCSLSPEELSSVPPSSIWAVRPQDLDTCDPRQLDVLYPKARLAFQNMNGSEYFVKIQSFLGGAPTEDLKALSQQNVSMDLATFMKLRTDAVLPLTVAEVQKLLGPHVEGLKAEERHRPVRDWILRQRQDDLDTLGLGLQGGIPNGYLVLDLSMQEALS

EC50, inhibition of proliferation of N87 gastric cancer cells (3H thymidine incorporation assay): 0.2 nM
B1: conjugate (II-1), a conjugate of compound (III-1) and the anti-mesothelin antibody 6A4 (antibody, V domains shown)
VH: QVHLVESGGGVVQPGRSLRLSCVASGITFRIYGMHWVRQAPGKGLEWVAVLWYDGSHEYYADSVKGRFTISRDNSKNTLYLQMNSLRAEDTAIYYCARDGDYYDSGSPLDYWGQGTLVTVSS
VL: EIVLTQSPATLSLSPGERATLSCRASQSVSSYLAWYQQKPGQAPRLLIYDASNRATGIPARFSGSGSGTDFTLTISSLEPEDFAVYYCQQRSNWPLTFGGGTKVEIK
modifications: lysine ε-amino groups thiolated with 2-iminothiolane and linked to the maleimide of tubulysin drug-linker compound (III-1); sites and chain not stated
